# Measurements: PMC11130294 (Nature Communications, 2024)
# Tests used:
# FabDA1 [1] = test: MST; pH 7.5: Fab labelled with a 647-nm fluorophore at 40 nM, NorA in PMAL-C8 amphipol at varied concentrations; 20 mM Tris pH 7.5, 100 mM NaCl, 0.025% Tween-20; 15 min incubation; fit with Hill slope 1.0; three replicates
# FabDA1 [2] = test: MST; pH 5.0: Fab labelled with a 647-nm fluorophore at 40 nM, NorA in PMAL-C8 amphipol at varied concentrations; 50 mM acetate pH 5.0, 100 mM NaCl, 0.025% Tween-20; 15 min incubation; fit with Hill slope 1.0; three replicates
# [3] = molecular target: T1, Staphylococcus aureus efflux pump NorA, wild type (S. aureus, UniProt P0A0J7); test: MST; NorA in amphipol at varied concentrations mixed with fluorophore-labelled Fab at 40 nM; 20 mM Tris pH 7.5, 100 mM NaCl, 0.025% Tween-20; 15 min incubation; three replicates; conditions: both partners purified
# T1 construct: NorA, major facilitator superfamily efflux pump of S. aureus; the construct is not described here; The C-terminal Myc tag is told only for the MRSA expression plasmid, not for this E. coli protein; also called wild-type NorA
Binder,Kd (FabDA1 [1]) [nM],Kd (FabDA1 [2]) [nM],binding result [3]
"NorA (wild-type, Staphylococcus aureus efflux pump) (natural protein) MNKQIFVLYFNIFLIFLGIGLVIPVLPVYLKDLGLTGSDLGLLVAAFALSQMIISPFGGTLADKLGKKLIICIGLILFSVSEFMFAVGHNFSVLMLSRVIGGMSAGMVMPGVTGLIADISPSHQKAKNFGYMSAIINSGFILGPGIGGFMAEVSHRMPFYFAGALGILAFIMSIVLIHDPKKSTTSGFQKLEPQLLTKINWKVFITPVILTLVLSFGLSAFETLYSLYTADKVNYSPKDISIAITGGGIFGALFQIYFFDKFMKYFSELTFIAWSLLYSVVVLILLVFANGYWSIMLISFVVFIGFDMIRPAITNYFSNIAGERQGFAGGLNSTFTSMGNFIGPLIAGALFDVHIEAPIYMAIGVSLAGVVIVLIEKQHRAKLKEQNM",> 24500,2900,–
"Fab36 (Fab, V domains shown, also called outward-open-specific Fab36) VH: EVQLVESGGGLVQPGGSLRLSCAASGFTFSSSSIHWVRQAPGKGLEWVASISSSSGSTSYADSVKGRFTISADTSKNTAYLQMNSLRAEDTAVYYCARYSRYYYYAWRVGGYWGGLDYWGQGTLVTVFN VL: DIQMTQSPSSLSASVGDRVTITCRASQSVSSAVAWYQQKPGKAPKLLIYSASSLYSGVPSRFSGSRSGTDFTLTISSLQPEDFATYYCQQSSSSLITFGQGTKVEIK",–,–,binds
